Data from paper PMC4005822, “Biochemical and functional characterization of Plasmodium falciparum GTP cyclohydrolase I” (Malaria Journal, 2014).

Experiments:
[1] = molecular target: T1, Plasmodium falciparum Δ1-195 GCH1 (core GCH1) (Plasmodium falciparum, UniProt Q8I5H7); assay: fluorescence of iodine-oxidised neopterin product; initial velocity at various GTP concentrations; format: biochemical; conditions: GTP as substrate; called competitive by the authors
T1 construct: gene PF3D7_1224000; C-terminal core domain, residues 196-389 (N-terminal 1-195 deleted); pET45b(+), E. coli BL21(DE3)RIL, Ni-sepharose purified (His tag); homodecamer
T1 sequence (Q8I5H7 entry or part of it, stated change not applied): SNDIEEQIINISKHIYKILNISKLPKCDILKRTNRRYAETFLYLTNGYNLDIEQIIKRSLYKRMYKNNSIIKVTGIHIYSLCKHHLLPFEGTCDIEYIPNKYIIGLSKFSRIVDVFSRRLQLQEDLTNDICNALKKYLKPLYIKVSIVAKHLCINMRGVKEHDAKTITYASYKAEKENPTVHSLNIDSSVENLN

[2] = system: Nc1nc2c(ncn2[C@@H]2O[C@H](COP(=O)(O)OP(=O)(O)OP(=O)(O)O)[C@@H](O)[C@H]2O)c(=O)[nH]1; assay: fluorescence of iodine-oxidised neopterin product; format: biochemical, Plasmodium falciparum; conditions: 50 mM Tris–HCl pH 7.8, 100 mM KCl, 20% glycerol, 37°C

Compound	fluorescence of iodine-oxidised neopterin product; initial velocity at various G [1]	Km [2]	kcat [2]
Nc1nc2c([nH]c(=O)n2[C@@H]2O[C@H](COP(=O)(O)OP(=O)(O)OP(=O)(O)O)[C@@H](O)[C@H]2O)c(=O)[nH]1 [8-oxo-GTP]	8-oxo-GTP could inhibit the activity of P. falciparum GCH1 with reduced fluorescent signal		
Plasmodium falciparum Δ1-195 GCH1 (core GCH1) (Plasmodium falciparum 3D7)		12.06 µM	0.039 s⁻¹
